Test results: the DeepSol protein solubility set

Assay: soluble on expression in E. coli; label from the status in PepcDB or PDB records

Sequence | soluble on expression in E. coli
MPVRYSGFDYDGCVGVTNLINIVAQNPKLAQRIRETSNYYTKEVALIASNRQSDRDDKRNARSNGNGSCFIQIQKLCTDLGMEFDPFLLADAYNLVPAGTSLHEATNPANGAKIQNGWLHDKSKASLVYAHMQRASSLEAREQIDYFFYDDREDILEGLYQFFSANPELIPSNVTMHLVKYACSRENVHTMDNYKIPVQGKGFTNPDYVKTIKAFGDKAIENARDVYDIDGKEINAAGVRQAKYNCNFEFEANKLQPMKFVNNFNSPAELIKAHEQAIEKIKLGAFELYKAKINVITTLSNEQKVFLIRAKAQQWNLLCDEGQWNNPIFTLQAIMAEKSDRFFLPQYAFTAKMLIKNYQEARENSKDGSRFWEQINAFIKSMNALKDPMRNAQSIFEVFKKNSYSVKAVDGFVKKVVEVMNALMDKYPQRSTTEMVACMRILESNLQKMVNFFSLVDRLITIYRGCTTAGLNFNKILTVVREALEEMKMITDSGDNYSTTLIDLDKVITAANNRLESLTYPKEYSTKNFHSQESYKVVGAYLCMQSQLIQKLDTKASTALAI | not soluble
MGSDKIHHHHHHMCRWLAYSGRPIFLDSLVTQPSHSLVAQSLHSQLNVSSAGVLLSTNGDGFGIGWYHKRPEPGVFKDDKPAWHDENLKNLCHQVKSHIFFAHIRATTTGDVQRTNCHPFQYKNWLFQHNGHVSHFDKIRRELQLEIAPELYPHLRGTTDSETFFLLALTYGLMEQPKQAMQKMVRRVITALEGVDKAGVLNLSCALSDGEKLFILRFAHNEAAMTQFYSADTDCFHEFNGQCNPIPNGSLVVVSEPLDKASDKWTSIPTNTFTSIIKNRVHSEVFL | not soluble
MASLGEILEGRATDIYFVRTRRVAEKYGVGGKRVRMEVHAYSLPRGYEWAVYAGLEEALALLQGKPVTVYSLPEGTVFERKDPLMVVEGRFQDIILFETALLGLLRFSTSIATKAARVRLAAGRGKTVLFFGLRALHPAVQPAADRAALVGGLDGVSGVLSREYLGVEPRGTMPHALIIVFGSQVEAWRAFAETFKEETPVIALVDTFWDEREEALMAARELGEVLAGVRLDTPSSRRGRMRDIVEEVRWALDIHGYKHVKIFVSGGLDEERVAELRDVADGFGVGTTIAAAPNIDISMDVVEVHEDGEWRPRTKRGKLPGARSIVLCRGEKRIVRLGEEPEGCEPLTRKYLEEGRLAQSLPSLDEIRSYVLKQLENLGLQ | soluble
MGSDKIHHHHHHMQTTTALRLYGKRDLRLETFTLPAMQDDEILARVVTDSLCLSSWKEANQGADHKKVPDDVATRPIIIGHEFCGEILAVGKKWQHKFQPGQRYVIQANLQLPDRPDCPGYSFPWIGGEATHVVIPNEVMAQDCLLTWEGDTWFEGSLVEPLSCVIGAFNANYHLQEGSYNHVMGIRPQGHTLILGGTGPMGLLAIDYALHGPINPSLLVVTDTNKPKLSYARRHYPSEPQTLIHYLDGHEASRDTLLALSGGHGFDDIFVFVPNEQLITLASSLLAPDGCLNFFAGPQDKQFSAPINFYDVHYAFTHYVGTSGGNTDDMRAAVALMQAKKVQTAKVVTHILGLNAAGETTLDLPAVGGGKKLVYTGKAFPLTPLGEIADPELAAIVARHHGIWSQDAEAYLLAHAEDITHD | not soluble
PMFEAAYDFPGSGSPSELPLKKGDVIYITREEPSGWSLGKLLDGSKEGWVPTAYMKPH | soluble
SLWYYLFKYIFMGPLFTLLGRPKVEGLEYIPSSGPAILASNHLAVADSFYLPLVVRRRIWFLAKSEYFTGTGLKGWINRWFYSVSGQVPIDRTNADSAQGALQTAVVLLGQGKLLGMYPEGTRSPDGRLYKGKTGLARLALHTGVPVIPVAMIGTNVVNPPGRKMLRFGRVTVRFGKPMDFSRFEGLAGNHFIERAVTDEVIYELMGLSGQEYVDIYAASVKDGRNAGGAGANPNSTDAARIPETAAEG | not soluble
MKSLQSSLGNIETFKLDELCPKHEIQLTQIKGERHVVVGWNENGEAIKEVRCIPPYCEQCQEEQKKQDEEDAIADNLNAKLYMQTYNVLMSNKSYVADEFKTKTFDDFNAVTSEEKRFLEFAKGQVQKYLDGMRGNTLITGGTGIGKTLLSVAIAKGINEGYKTKGEPKSVLFVSLTEMIKQIKEGWNYGKGATLTEFEATELMKSVDYLIIDDLGAKNAVIKPKSDWEQDLLFDVLNNRENTIFNTNLDSDELKIVYNERNYSRILKGLEGNTFKAFGIKYKRYSLNQLKSNM | not soluble
AAASMDAVTAEKFSPASFLDKKETGVLHFVKYHGLGNDFILVDNRDSSEPKITQEQAAKLCDRNFGVGADGVIFAMPGVNGTDYAMRIFNSDGSEPEMCGNGVRCFARFIAELENLQGKHSFTIHTGAGLIVPEIQDDGQVKVDMGTPILKAQDVPTKLSGNKGEAVVEAELVVDGVSWNVTCVSMGNPHCITFGKKGGPNLKVDDLNLPEIGPKFEHHEMFPARTNTEFVEVLSRSHLKMRVWERGAGATLACGTGACALVVAAVLEGRADRKCTVDLPGGPLEIEWKQEDNHIYMTGPAEAVFYGSALLHHHHHH | soluble
MKHMEKFANHFGYNRMFAKDQLTLGVHIPIENYQFHAPTMEKQVELVQKAEQYGFTGVWLRDVLLQDPDFGDPATGQIYDMMIYLTYLASKTEKIAFGTSATVLSLRHPLRVAKEIATLDQLFPERIMLGVSSGDRRADFKALGVSHETRGEKFREAFAYLEEILYKNFPSIQSTLGEVHGANLVPKPSKRVPTFITGFSQQNMEWFAEHGDGWMYYPRSPVHQAGAIGQWRELVEDYHPDVFKPFIQPMHLDLSEDPNERPTPIRLGYRTGRKALIELLDIYKSIGVNHLFLALFDGQRPADEVLDELGEEVLPHFPAL | soluble
MAHHHHHHMLTRSERGMCNGRVPTKGLVGFLSGSSTGTEWRDEYLGVNAIVHGPAEKRIGVPNGVTFQGSWAEWPVGDMGQTVPYYFANNKFTLVATVSIHEVPKEDSSPIPLIGVRMNDTSSTVLFALSYTHDRKWLAIPEDAGGVEDLFGWEPHTTYQAVLRMTLDEWTAFVDQREIDRKSYNENLFDSHRISHFYIGGDSNDQSATDGHVTVTNVMLYNEDLYNNELYEPNASKVNIPSLGVEEHPTGQVTSTEVSVVHESKSEEITASCAELNEDDTDKQEEETASMIRCLQRPLPRLTRDHLFLSLPSQRRAQGMTVQRTMSSFTRAKRPSKPRRMKRINRCNGVQTCSHKTHSQRN | not soluble
FNCNKREGPCSQRSLCECDPNLQLGRHSDQLWHYNLRTNRCERGGYRDNCNSHSSSGACVMACERIHHHHHH | soluble
KDWRDKDQSDGFGKVYVTEKVAQIKQIPFDASKLHSSPQMAAQHNMVDDGSGKVEIWRVENNGRIQVDQNSYGEFYGGDCYIILYTYPRGQIIYTWQGANATRDELTTSAFLTVQLDRSLGGQAVQIRVSQGKEPVHLLSLFKDKPLIIYKNGTSKKGGQAPAPPTRLFQVRRNLASITRIVEVDVDANSLNSNDVFVLKLPQNSGYIWVGKGASQEEEKGAEYVASVLKCKTLRIQEGEEPEEFWNSLGGKKDYQTSPLLETQAEDHPPRLYGCSNKTGRFVIEEIPGEFTQDDLAEDDVMLLDAWEQIFIWIGKDANEVEKKESLKSAKMYLETDPSGRDKRTPIVIIKQGHEPPTFTGWFLGWDSSKW | soluble
MAGASVKVAVRVRPFNSREMSRDSKCIIQMSGSTTTIVNPKQPKETPKSFSFDYSYWSHTSPEDINYASQKQVYRDIGEEMLQHAFEGYNVCIFAYGQTGAGKSYTMMGKQEKDQQGIIPQLCEDLFSRINDTTNDNMSYSVEVSYMEIYCERVRDLLNPKNKGNLRVREHPLLGPYVEDLSKLAVTSYNDIQDLMDSGNKPRTVAATNMNETSSRSHAVFNIIFTQKRHDAETNITTEKVSKISLVDLAGSERADSTGAKGTRLKEGANINKSLTTLGKVISALAEMDSGPNKNKKKKKTDFIPYRDSVLTWLLRENLGGNSRTAMVAALSPADINYDETLSTLRYADRAKQIRNTVSVNHHHHH | soluble
MFQDVLVITVAVGRGGDGAVSFRREKFVPKGGPDGGDGGRGGSVYLRARGSVDSLSRLSKRTYKAEDGEHGRGSQQHGRGGEDLVIEVPRGTRVFDADTGELLADLTEEGQTVLVARGGAGGRGNMHFVSPTRQAPRFAEAGEEGEKRRLRLELMLIADVGLVGYPNAGKSSLLAAMTRAHPKIAPYPFTTLSPNLGVVEVSEEERFTLADIPGIIEGASEGKGLGLEFLRHIAGTRVLLYVLDAADDPFKTLKTLRKKVWAYDPGLLGRPSLVALNKVDLLEKEAVKALADALAREGLAVLPVSALTGAGLPALKEALHALVRSTPPPEMPKPVPRKEVQAGVEVVPVAEGVYEVRAPEVERYLARIKGDLMEAAGYLQEVFRRQGVEAALRAKGVRAGDLVRIGGLEFEYIPEV | soluble
SNAEELIEIREARMDDLDTIAKFNYNLAKETEGKELDMDVLTKGVKALLLDERKGKYHVYTVFDKVVAQIMYTYEWSDWRNGNFLWIQSVYVDKEYRRKGIFNYLFNYIKNICDKDENIVGMRLYVEKENINAKATYESLNMYECDYNMYEYEVIHS | soluble
AHHHHHHGSNYRYPPRYGPEWGSGGIYGLRFHNGTLYFTLAFEGEAHFITEDSHKIYEFELVGPRPTSGGDTYNAVEVVDEYIYFGGWVHAPAKYRGKGEGKATIDFSNKYSHVHEYDTENQEVRLVWKESIHHPSEWAGEVSDIIYNPYTDELLLAREDGHTNLGVYSLSRNGRIRLLNDKPSAKGCQMHDLAFFGIGKNYRKGLEEIHALDMITERWEVFPLGESLDGGKYIQPHLGGNGVSVNNRVFAFVRGGVFVGNPHNDEQFAFVRLFDFYTFYAPFRVNALPIGGGILVGFNAHHDAYYRPRTQEEMIYHRFTNTIPGPSVLVYFAPPMVKIVGVFGARITSIEKVDGKILVATNTTPNVGALDATPFDTGNKDIFVLPEKILQEKPPAVSFSVPLAFPSEGKRMGAGVFGGIPLDGYDNARLIIKASRDNRLKVYEYDLALPLRDADVEEFDIKKGRNVIDLRTFSGIVSFELESEDFSGVARIELW | not soluble
MGSDKIHHHHHHMIYFETERLICRAFERADLQAFTAYRADPEVARYQSWQDYQYQDALALFENLQQTPFGANGTWMQLALVCRQTQALVGDLALHFIDAQQVEIGFTLASEHQGKGLAREALQGLLVYLFERLGKHRVSAITDVKNRAAWGLLERLGFRREAHYRDNIFFKGSWGSEYGYGLLAREWRQAQVGEPLQEFRLIKRVAPLNDFLRLRQITGLTPRSREAAELGLPLSLFGVHLLAGDRVLAMGRVVGDGALNFELVDIAVDPEYQGRGLGSAIMSAIMAYLDEMAPKGAYITLMADVPALYLKFGFEYSRPASEGMYKLQA | not soluble
MVTLCHVFGVHRSSYRYWKNRPEKPDGRRAVLRSQVLELHGISHGSAGARSIATMATRRGYQMGRWLAGRLMKELGLVSCQQPTHRYKRGGHEHVAIPNYLERQFAVTEPNQVWCGDVTYIWTGKRWAYLAVVLDLFARKPVGWAMSFSPDSRLTMKALEMAWETRGKPGGVMFHSDQGSHYTSRQFRQLLWRYQIRQSMSRRGNCWDNSPMERFFRSLKNEWMPVVGYVSFSKAAHAITDYIVGYYSALRPHEYNGGLPPNESENRYWKNSNSVASFC | not soluble
MAHHHHHHMMYTGEIENGQMHGRGCLIYPNKEKYEGDWVYGKRHGHGVYTYADGSKYDGEWVEDKVHGKGTCYYASGNRYSGDWTFGRINGRGTLEYADGDRYDGEWKDGRMHGKGLYYYSNGDRYDGEWKDDKRHGKGTVTYAGPDGSVSEKFDGDWVEGRMQGWGKYYYADGGVYEGEWQDGKMHGKGTYIFPNGNKYEGEWCDDVKQGYGVLTYVNGERYEGYWLDDKAHGTGTLTYLQGDRYTGEWYQGKKHGRGTLAYSNKDTYEGEWRNDSATGRGVLEYANGCRYEGDWLDDRRHGEGQLLLPDGSSYEGGWVNGKKEGRARIILKCGAVFVGTWKDNLIVGQGEFYLSENCDLNNPDY | soluble
